Assay results reported in patent publication US20090304746A1.
Like-named read-outs stand apart in the source and are kept apart here.

Columns and labels:
HLA-A*0301 (human) [1] = target: HLA-A*0301 (human)
HLA-A*1101 (human) [2] = target: HLA-A*1101 (human)
HLA-A*0301 (Human) [3] = target: HLA-A*0301 (Human)
HLA-A*1101 (human) [4] = target: HLA-A*1101 (human); remark: listed apart in the source
HLA-B*0702 (human) = test: competition with 125I-labelled standard peptide for purified HLA, gel filtration
HLA-B*3501 (human) = test: as above
HLA-B*5101 (human) = test: as above
HLA-B*5301 (human) = test: as above
HLA-B*5401 (human) = test: as above
HLA-A*1101 (human) [5] = target: HLA-A*1101 (human); remark: listed apart in the source
HLA-A*0301 (human) [6] = test: competition with 125I-labelled standard peptide on purified HLA, gel filtration
HLA-A*0301 (human) [7] = test: as above; remark: listed apart in the source
HLA-A*0301 (human) [8] = target: HLA-A*0301 (human); remark: listed apart in the source
[9] = target: T1, HLA-DR5w11 (DRB1*1101) (human); settings: remark: other sources report otherwise
T1 chain 1: not shown
T1 chain 2: not shown

[10] = target: T2, HLA-DR6w19 (DRB1*1302) (human); settings: remark: other sources report otherwise
T2 chain 1: not shown
T2 chain 2: not shown

[11] = target: T3, HLA-DR7 (DRB1*0701) (human); settings: remark: other sources report otherwise
T3 chain 1: not shown
T3 chain 2: not shown

[12] = target: T4, HLA-DR9 (DRB1*0901) (human); settings: remark: other sources report otherwise
T4 chain 1: not shown
T4 chain 2: not shown

HLA-A*0301 (human) [13] = target: HLA-A*0301 (human); remark: listed apart in the source
[14] = target: T5, HLA-DR1 (DRB1*0101) (human); test: purified HLA-DR, inhibition of 125I standard peptide, gel filtration
T5 chain 1: not shown
T5 chain 2: not shown

[15] = target: T6, HLA-DR4w15 (DRB1*0405) (human); test: as above
T6 chain 1: not shown
T6 chain 2: not shown

[16] = target: T7, HLA-DR4w4 (DRB1*0401) (human); test: as above
T7 chain 1: not shown
T7 chain 2: not shown

[17] = target: HLA-A*3101 (purified HLA class I molecule) (human); settings: remark: other sources report otherwise

Binder: PVVVGTTDR (modifications not checked) [HCV peptide … (polyprotein position 516)]
- binding affinity ratio (IC50 of standard peptide / IC50 of test peptide) (HLA-A*0301 (human) [1]): 0.0008
- binding affinity ratio (IC50 of standard peptide / IC50 of test peptide) (HLA-A*1101 (human) [2]): 0.0005

Binder: FGYGAKDVR (modifications not checked) [… (HCV polyprotein position 2554)]
- binding affinity ratio (IC50 of standard peptide / IC50 of test peptide) (HLA-A*0301 (Human) [3]): 0.0008
- binding affinity ratio (IC50 of standard peptide / IC50 of test peptide) (HLA-A*1101 (human) [4]): 0.0005

Binder: VPESDAAARV (modifications not checked) [HCV peptide … (polyprotein position 1940)]
- binding affinity ratio (relative to standard peptide) (HLA-B*0702 (human)): 0.0001
- binding affinity ratio (relative to standard peptide) (HLA-B*3501 (human)): 0.0001
- binding affinity ratio (relative to standard peptide) (HLA-B*5101 (human)): 0.001
- binding affinity ratio (relative to standard peptide) (HLA-B*5301 (human)): 0.0001
- binding affinity ratio (relative to standard peptide) (HLA-B*5401 (human)): 0.0003

Binder: SASQLSAPSLK (modifications not checked) [HCV peptide … (polyprotein position 2207)]
- binding affinity ratio (IC50 of standard peptide / IC50 of test peptide) (HLA-A*0301 (human) [1]): 0.0003
- binding affinity ratio (IC50 of standard peptide / IC50 of test peptide) (HLA-A*1101 (human) [2]): 0.0044

Binder: YVPESDAAAR (modifications not checked) [… (HCV polyprotein position 1939, 10-mer, A11 motif peptide)]
- binding affinity ratio (IC50 of standard peptide / IC50 of test peptide) (HLA-A*1101 (human) [5]): 0.0001

Binder: IAFASRGNH (modifications not checked) [HCV peptide … (polyprotein position 1925)]
- binding affinity ratio (IC50 of standard peptide / IC50 of test peptide) (HLA-A*0301 (human) [6]): 0.0003

Binder: PTDPRRRSR (modifications not checked) [HCV peptide … (polyprotein position 109)]
- binding affinity ratio (IC50 of standard peptide / IC50 of test peptide) (HLA-A*1101 (human) [2]): 0.0005
- binding affinity ratio (IC50 of standard peptide / IC50 of test peptide) (HLA-A*0301 (human) [7]): 0.0008

Binder: WLLSPRGSR (modifications not checked) [… (HCV polyprotein position 96, 9-mer, A11 motif peptide)]
- binding affinity ratio (IC50 of standard peptide / IC50 of test peptide) (HLA-A*1101 (human) [5]): 0.0005

Binder: IVGGVYLLPR (modifications not checked) [HCV peptide … (polyprotein position 30)]
- binding affinity ratio (IC50 of standard peptide / IC50 of test peptide) (HLA-A*0301 (human) [1]): 0.0008
- binding affinity ratio (IC50 of standard peptide / IC50 of test peptide) (HLA-A*1101 (human) [2]): 0.0056
- binding affinity ratio (IC50 of standard peptide / IC50 of test peptide) (HLA-A*0301 (human) [6]): 0.0008

Binder: VGGVYLLPR (modifications not checked) [HCV peptide … (HCV polyprotein position 31, 9-mer, A03 motif)]
- binding affinity ratio (IC50 of standard peptide / IC50 of test peptide) (HLA-A*0301 (human) [8]): 0.0003

Binder: GARLVVLATATPPGS (modifications not checked) [HCV NS3 1345 peptide 1283.24]
- binding affinity ratio (relative to standard peptide) [9]: 0.0094
- binding affinity ratio (relative to standard peptide) [10]: 0.0004
- binding affinity ratio (relative to standard peptide) [11]: 0.044
- binding affinity ratio (relative to standard peptide) [12]: 0.0067

Binder: TGLTHIDAH (modifications not checked) [… (HCV polyprotein position 1568)]
- binding affinity ratio (IC50 of standard peptide / IC50 of test peptide) (HLA-A*0301 (human) [13]): 0.0003

Binder: CGPVYCFTPSPVVVG (modifications not checked) [HCV peptide … (core …)]
- relative binding (IC50 of standard peptide / IC50 of test peptide) [14]: 0.27
- relative binding (IC50 of standard peptide / IC50 of test peptide) [15]: 0.4
- relative binding (IC50 of standard peptide / IC50 of test peptide) [16]: 0.26

Binder: LVVGVVCAAI (modifications not checked) [HCV peptide … (polyprotein position 1897)]
- binding affinity ratio (IC50 of standard peptide / IC50 of test peptide) (HLA-A*0201 (Human)): 0.0011

Binder: TLGFGAYMSK (modifications not checked) [Peptide 1073.14 (HCV NS3 1261, …)]
- IC50 [17]: > 30 µM

Binder: TSERSQPRGR (modifications not checked) [… (HCV polyprotein position 52)]
- binding affinity ratio (IC50 of standard peptide / IC50 of test peptide) (HLA-A*0301 (human) [13]): 0.0003
